2 substances from US20030022292A1 can be followed below.

The target in this test is CEACAM1 (carcinoembryonic antigen-related cellular adhesion molecule 1) on human CD4+ T lymphocytes and Jurkat cells (human) (UniProt P13688). In words: cell-based or functional assay.
Sequence of UniProt P13688 (P13688 35-526): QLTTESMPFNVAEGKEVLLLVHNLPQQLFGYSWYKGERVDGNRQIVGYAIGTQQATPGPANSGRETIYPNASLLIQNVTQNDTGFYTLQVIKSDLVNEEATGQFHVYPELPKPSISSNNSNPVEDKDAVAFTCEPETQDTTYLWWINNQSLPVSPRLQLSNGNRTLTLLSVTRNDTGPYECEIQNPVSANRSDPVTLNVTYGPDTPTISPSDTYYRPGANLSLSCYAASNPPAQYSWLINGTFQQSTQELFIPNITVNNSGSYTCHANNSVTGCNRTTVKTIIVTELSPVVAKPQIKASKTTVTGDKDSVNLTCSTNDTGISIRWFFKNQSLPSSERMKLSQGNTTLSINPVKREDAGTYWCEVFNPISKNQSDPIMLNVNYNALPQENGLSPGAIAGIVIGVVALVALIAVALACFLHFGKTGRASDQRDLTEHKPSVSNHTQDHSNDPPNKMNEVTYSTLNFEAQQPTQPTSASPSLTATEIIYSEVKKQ

The substance “Opa52 protein of Neisseria gonorrhoeae strain MS11, expressed on gonococcal strain N309 (ligand)” displayed a reduction of IL-2-dependent CD4+ T lymphocyte proliferation at MOI=50, relative to Opa50-expressing gonococci of 34%; a reduction of IL-2-dependent CD4+ T lymphocyte proliferation at MOI=100, relative to Opa50-expressing gonococci of 51%; a reduction of IL-2-dependent CD4+ T lymphocyte proliferation at MOI=200, relative to Opa50-expressing gonococci of 76%.

On to “Opa57 protein of Neisseria gonorrhoeae strain MS11, expressed on gonococcal strain N313 (ligand)”, for which the lowest multiplicity of infection at which inhibition of Jurkat proliferation was apparent (MOI (bacteria/cell)) was determined as 25.
